Data published in publication PMC3401449 (Nucleic Acids Research, 2012).

Target: T1, His-tagged, wild-type DNA polymerase IV (Pol IV) (Escherichia coli, UniProt Q47155 1-351)
T1 sequence (looked up): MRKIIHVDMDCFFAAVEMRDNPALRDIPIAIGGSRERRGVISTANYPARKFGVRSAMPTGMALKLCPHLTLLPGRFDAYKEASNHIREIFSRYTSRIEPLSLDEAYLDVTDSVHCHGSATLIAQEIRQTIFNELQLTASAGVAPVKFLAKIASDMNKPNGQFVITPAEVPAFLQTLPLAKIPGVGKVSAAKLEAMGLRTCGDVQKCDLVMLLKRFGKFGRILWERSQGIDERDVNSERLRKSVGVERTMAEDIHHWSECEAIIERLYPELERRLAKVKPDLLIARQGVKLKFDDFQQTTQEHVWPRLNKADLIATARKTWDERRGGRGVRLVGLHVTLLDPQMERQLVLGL
Assay: pull-down

WMDFDDDIPF [SSB-Ct peptide (Trp–Met–Asp–Phe–Asp–Asp–Asp–Ile–Pro–Phe)]
binding result: binds
